Results from patent US20250333467A1 (TECTONIC OPERATING, published 2025).
Several values for one entry are separate records, joined by “and”; a condition that tells them apart may be missing. Equal entries are not always repeated. Where two headings read alike, the source gives them in different places.

How the values were obtained:
Assay in all cases: cell-based or functional assay
[1] = molecular target: T1, human RXFP1 (human, UniProt Q9HBX9 1-757)
T1 sequence (looked up): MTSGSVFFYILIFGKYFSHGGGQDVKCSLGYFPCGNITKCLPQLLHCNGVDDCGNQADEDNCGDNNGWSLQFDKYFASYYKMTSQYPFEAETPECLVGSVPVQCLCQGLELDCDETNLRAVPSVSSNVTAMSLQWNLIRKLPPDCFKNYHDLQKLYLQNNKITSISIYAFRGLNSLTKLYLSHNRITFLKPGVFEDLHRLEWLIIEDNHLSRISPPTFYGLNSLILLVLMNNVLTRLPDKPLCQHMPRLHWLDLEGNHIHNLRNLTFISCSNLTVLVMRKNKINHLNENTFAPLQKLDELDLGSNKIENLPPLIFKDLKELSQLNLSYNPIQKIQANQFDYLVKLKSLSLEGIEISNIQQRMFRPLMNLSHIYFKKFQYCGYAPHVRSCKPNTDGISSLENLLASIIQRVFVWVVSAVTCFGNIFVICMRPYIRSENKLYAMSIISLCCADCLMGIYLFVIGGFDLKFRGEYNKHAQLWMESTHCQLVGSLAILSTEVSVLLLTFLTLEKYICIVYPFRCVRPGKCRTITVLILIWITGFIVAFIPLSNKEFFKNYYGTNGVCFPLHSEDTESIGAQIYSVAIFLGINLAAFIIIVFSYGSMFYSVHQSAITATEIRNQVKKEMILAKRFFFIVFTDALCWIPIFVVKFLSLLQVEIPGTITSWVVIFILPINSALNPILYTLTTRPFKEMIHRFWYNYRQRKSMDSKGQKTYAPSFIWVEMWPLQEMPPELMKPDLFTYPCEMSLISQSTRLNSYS

[2] = molecular target: T2, human RXFP2 (human, UniProt Q8WXD0 1-754)
T2 sequence (Q8WXD0 whole entry): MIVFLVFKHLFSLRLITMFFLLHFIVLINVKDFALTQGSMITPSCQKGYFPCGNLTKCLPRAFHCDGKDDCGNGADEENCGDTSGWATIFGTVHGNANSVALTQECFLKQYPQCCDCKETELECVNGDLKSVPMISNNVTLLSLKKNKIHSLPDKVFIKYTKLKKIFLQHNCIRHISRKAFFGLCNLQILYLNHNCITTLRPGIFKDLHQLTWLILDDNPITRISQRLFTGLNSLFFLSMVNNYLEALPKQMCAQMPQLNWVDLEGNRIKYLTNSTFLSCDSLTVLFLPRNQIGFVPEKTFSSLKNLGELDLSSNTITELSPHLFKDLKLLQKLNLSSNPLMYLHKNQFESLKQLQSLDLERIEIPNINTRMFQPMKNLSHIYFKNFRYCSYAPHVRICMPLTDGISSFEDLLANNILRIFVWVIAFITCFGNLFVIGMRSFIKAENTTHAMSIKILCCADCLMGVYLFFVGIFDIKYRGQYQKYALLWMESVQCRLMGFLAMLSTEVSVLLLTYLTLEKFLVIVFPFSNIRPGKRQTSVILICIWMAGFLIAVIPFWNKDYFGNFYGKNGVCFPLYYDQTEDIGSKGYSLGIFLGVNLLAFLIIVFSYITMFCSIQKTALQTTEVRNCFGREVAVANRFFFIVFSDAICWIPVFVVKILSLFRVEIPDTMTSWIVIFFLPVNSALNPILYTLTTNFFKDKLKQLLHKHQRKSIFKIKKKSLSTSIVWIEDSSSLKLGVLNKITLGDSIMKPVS

[3] = molecular target: T3, rat RXFP1 (rat, UniProt Q6R6I6 1-758)
T3 sequence (looked up): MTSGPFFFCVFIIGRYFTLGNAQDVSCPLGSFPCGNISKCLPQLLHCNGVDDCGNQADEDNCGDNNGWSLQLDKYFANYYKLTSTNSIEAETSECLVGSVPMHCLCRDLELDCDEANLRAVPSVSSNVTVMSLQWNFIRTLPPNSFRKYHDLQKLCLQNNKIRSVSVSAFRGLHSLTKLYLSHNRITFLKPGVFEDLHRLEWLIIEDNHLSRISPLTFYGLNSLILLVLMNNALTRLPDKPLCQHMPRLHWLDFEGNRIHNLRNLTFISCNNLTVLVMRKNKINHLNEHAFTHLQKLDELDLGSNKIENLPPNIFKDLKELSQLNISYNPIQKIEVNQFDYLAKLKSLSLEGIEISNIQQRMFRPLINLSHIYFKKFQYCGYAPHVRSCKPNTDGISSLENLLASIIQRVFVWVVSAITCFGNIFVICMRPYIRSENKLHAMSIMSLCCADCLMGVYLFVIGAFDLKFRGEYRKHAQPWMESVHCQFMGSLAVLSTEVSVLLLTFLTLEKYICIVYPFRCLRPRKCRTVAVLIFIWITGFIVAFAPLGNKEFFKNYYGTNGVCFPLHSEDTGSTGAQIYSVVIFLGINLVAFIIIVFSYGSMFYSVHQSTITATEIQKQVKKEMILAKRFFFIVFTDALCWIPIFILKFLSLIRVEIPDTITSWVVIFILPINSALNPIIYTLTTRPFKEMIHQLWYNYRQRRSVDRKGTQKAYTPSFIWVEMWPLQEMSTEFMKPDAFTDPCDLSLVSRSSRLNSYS

[4] = molecular target: T1, human RXFP1; remark: listed apart in the source
[5] = molecular target: T1, human RXFP1; remark: listed apart in the source
[6] = molecular target: T3, rat RXFP1; remark: listed apart in the source
[7] = molecular target: T1, human RXFP1; remark: listed apart in the source
[8] = molecular target: T3, rat RXFP1; remark: listed apart in the source
[9] = molecular target: T1, human RXFP1; remark: listed apart in the source
[10] = molecular target: T4, cynomolgus monkey RXFP1 (cynomolgus monkey, UniProt H9ERA2 1-757 (rhesus entry))
T4 sequence: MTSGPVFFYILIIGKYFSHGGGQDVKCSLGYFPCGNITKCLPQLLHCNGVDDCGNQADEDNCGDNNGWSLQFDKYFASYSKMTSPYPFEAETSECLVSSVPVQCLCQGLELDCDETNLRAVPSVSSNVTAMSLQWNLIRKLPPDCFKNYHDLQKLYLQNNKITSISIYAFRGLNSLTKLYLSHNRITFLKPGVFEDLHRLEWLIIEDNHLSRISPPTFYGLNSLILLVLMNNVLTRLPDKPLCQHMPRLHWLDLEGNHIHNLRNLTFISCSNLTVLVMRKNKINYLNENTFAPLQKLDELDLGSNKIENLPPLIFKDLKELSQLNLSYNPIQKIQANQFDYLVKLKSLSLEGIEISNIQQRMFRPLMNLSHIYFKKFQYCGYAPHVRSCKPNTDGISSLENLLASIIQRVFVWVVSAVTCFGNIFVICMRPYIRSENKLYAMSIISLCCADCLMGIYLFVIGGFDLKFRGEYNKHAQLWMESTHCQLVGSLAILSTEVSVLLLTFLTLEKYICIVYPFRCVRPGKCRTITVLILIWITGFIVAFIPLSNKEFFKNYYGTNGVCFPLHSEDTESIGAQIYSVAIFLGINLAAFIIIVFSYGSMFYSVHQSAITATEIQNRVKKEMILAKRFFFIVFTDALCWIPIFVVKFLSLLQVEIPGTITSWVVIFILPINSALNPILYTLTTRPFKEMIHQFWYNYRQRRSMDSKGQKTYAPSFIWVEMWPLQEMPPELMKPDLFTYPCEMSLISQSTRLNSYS

[11] = molecular target: T1, human RXFP1; remark: listed apart in the source
[12] = molecular target: T2, human RXFP2; remark: listed apart in the source

B1: SEQ ID NO: 87 (Fc fusion)
chain: DKTHTCPPCPAPEAAGGPSVFLFPPKPKDTLMISRTPEVTCVVVDVSHEDPEVKFNWYVDGVEVHNAKTKPREEQYNSTYRVVSVLTVLHQDWLNGKEYKCKVSNKALAAPIEKTISKAKGQPREPQVYTLPPSRDELTKNQVSLTCLVKGFYPSDIAVEWESNGQPENNYKTTPPVLDSDGSFFLYSKLTVDKSRWQQGNVFSCSVLHEALHSHYTQKSLSLSPGKGGSDSWQEEVIKLCGRELVRAQIAICGKSTASDAAGAEAEAGARQLYSALANKCCHVGCTKRSLAQFC
B1 was tested, and the “Potency (cAMP, transient hRXFP1 in HEK293)” value [1] was 5.2 nM, the “fold loss of cAMP potency on human RXFP2 against human RXFP1 (CHO-K1, stable)” value [2] was ~100 fold and the “EC50 for cAMP generation, recombinant rat RXFP1 assay (average)” value [3] was 35 nM. For the same binder, the “EC50 for cAMP generation, recombinant human RXFP1 assay (average)” value [4] was 10 nM, the “Potency (cAMP, transient hRXFP1 in HEK293)” value [5] was 8.5 nM and the “Transient HEK293 rRXFP1 cAMP EC50” value [6] was 10.3 nM. The “THP1 (endogenous RXFP1) cAMP EC50” value [7] was 25 nM, the “Transient HEK293 hRXFP1 cAMP EC50” value [7] was 8.7 nM and the “cAMP response EC50, rat RXFP1 transient in HEK293” value [8] was 30 nM and 2000 ng/mL. The “cAMP response EC50, human RXFP1 transient in HEK293” value [9] was 10 nM and 800 ng/mL, the “cAMP response EC50, cynomolgus monkey RXFP1 transient in HEK293” value [10] was 10 nM and 800 ng/mL and the “cAMP response EC50, THP-1 (endogenous RXFP1)” value [11] was 10 nM and 900 ng/mL. For the same binder, the “cAMP response EC50, human RXFP1 stable in CHO-K1” value [11] was 40 nM and 2000 ng/mL and the “cAMP response EC50, human RXFP2 stable in CHO-K1” value [12] was > 2 µM and > 1e+06 ng/mL.
